Reference: PMC10786891, “Massively parallel profiling of RNA-targeting CRISPR-Cas13d”

T1: EsCas13d, nuclease-dead (Eubacterium siraeum, UniProt B0MS50, R295A;H300A;R849A;H854A)
T1 sequence: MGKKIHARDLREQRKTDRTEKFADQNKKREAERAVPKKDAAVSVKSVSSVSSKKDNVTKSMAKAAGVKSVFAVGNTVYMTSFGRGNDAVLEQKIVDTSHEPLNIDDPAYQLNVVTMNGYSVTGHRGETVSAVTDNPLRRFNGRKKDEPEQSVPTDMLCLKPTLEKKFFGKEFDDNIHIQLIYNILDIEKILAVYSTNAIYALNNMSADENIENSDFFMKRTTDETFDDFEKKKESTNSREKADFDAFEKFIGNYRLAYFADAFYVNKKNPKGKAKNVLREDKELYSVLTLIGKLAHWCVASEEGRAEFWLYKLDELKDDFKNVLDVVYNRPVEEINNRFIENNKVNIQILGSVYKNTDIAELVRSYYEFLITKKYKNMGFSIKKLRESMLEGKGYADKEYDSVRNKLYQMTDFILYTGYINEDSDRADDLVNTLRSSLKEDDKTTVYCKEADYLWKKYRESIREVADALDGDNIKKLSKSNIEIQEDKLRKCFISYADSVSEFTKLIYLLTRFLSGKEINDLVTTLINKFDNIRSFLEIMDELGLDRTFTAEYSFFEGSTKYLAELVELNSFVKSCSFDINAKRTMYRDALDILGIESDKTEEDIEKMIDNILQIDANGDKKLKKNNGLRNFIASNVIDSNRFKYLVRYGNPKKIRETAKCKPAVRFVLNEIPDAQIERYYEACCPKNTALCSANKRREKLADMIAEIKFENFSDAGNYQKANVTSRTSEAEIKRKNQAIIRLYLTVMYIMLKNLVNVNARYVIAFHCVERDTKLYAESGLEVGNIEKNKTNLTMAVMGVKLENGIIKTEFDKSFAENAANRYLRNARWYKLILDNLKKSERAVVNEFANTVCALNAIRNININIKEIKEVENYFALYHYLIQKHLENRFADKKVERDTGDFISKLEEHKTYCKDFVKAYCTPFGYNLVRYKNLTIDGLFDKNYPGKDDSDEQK

B1: target 1 C4G,A16G (mixed)
RNA 1: CACCCGUGCAAAAAUGCAGGGGUCUAAAACUGAGCGGAUAACCUCUCUAUGG
RNA 2: GGGAAUGGAUCCACAUCUACGAAUUCGUACCAUAGGGAGGUUAUCCGGUCACCGAGAUCGGAAGAGCACACGU
B2: target 1 A9C (mixed)
RNA 1: CACCCGUGCAAAAAUGCAGGGGUCUAAAACUGAGCGGAUAACCUCUCUAUGG
RNA 2: GGGAAUGGAUCCACAUCUACGAAUUCGUACCAUAGAGAGGUUCUCCGCUCACCGAGAUCGGAAGAGCACACGU
B3: target 1 insC 3' of 19,insG 3' of 16 (mixed)
RNA 1: CACCCGUGCAAAAAUGCAGGGGUCUAAAACUGAGCGGAUAACCUCUCUAUGG
RNA 2: GGGAAUGGAUCCACAUCUACGAAUUCGUACCAUCAGAGGAGGUUAUCCGCUCACCGAGAUCGGAAGAGCACACGU
B4: target 1 insG 3' of 11,insU 3' of 7 (mixed)
RNA 1: CACCCGUGCAAAAAUGCAGGGGUCUAAAACUGAGCGGAUAACCUCUCUAUGG
RNA 2: GGGAAUGGAUCCACAUCUACGAAUUCGUACCAUAGAGAGGUGUAUCUCGCUCACCGAGAUCGGAAGAGCACACGU
B5: target 1 C6G,A18G (mixed)
RNA 1: CACCCGUGCAAAAAUGCAGGGGUCUAAAACUGAGCGGAUAACCUCUCUAUGG
RNA 2: GGGAAUGGAUCCACAUCUACGAAUUCGUACCAUGGAGAGGUUAUCGGCUCACCGAGAUCGGAAGAGCACACGU
B6: target 1 insA 3' of 7,insG 3' of 6 (mixed)
RNA 1: CACCCGUGCAAAAAUGCAGGGGUCUAAAACUGAGCGGAUAACCUCUCUAUGG
RNA 2: GGGAAUGGAUCCACAUCUACGAAUUCGUACCAUAGAGAGGUUAUCACGGCUCACCGAGAUCGGAAGAGCACACGU
B7: target 1 insC 3' of 19,insA 3' of 4 (mixed)
RNA 1: CACCCGUGCAAAAAUGCAGGGGUCUAAAACUGAGCGGAUAACCUCUCUAUGG
RNA 2: GGGAAUGGAUCCACAUCUACGAAUUCGUACCAUCAGAGAGGUUAUCCGCAUCACCGAGAUCGGAAGAGCACACGU
B8: target 1 insA 3' of 15,insA 3' of 3 (mixed)
RNA 1: CACCCGUGCAAAAAUGCAGGGGUCUAAAACUGAGCGGAUAACCUCUCUAUGG
RNA 2: GGGAAUGGAUCCACAUCUACGAAUUCGUACCAUAGAGAAGGUUAUCCGCUACACCGAGAUCGGAAGAGCACACGU
B9: target 1 insC 3' of 11,insA 3' of 2 (mixed)
RNA 1: CACCCGUGCAAAAAUGCAGGGGUCUAAAACUGAGCGGAUAACCUCUCUAUGG
RNA 2: GGGAAUGGAUCCACAUCUACGAAUUCGUACCAUAGAGAGGUCUAUCCGCUCAACCGAGAUCGGAAGAGCACACGU
B10: target 1 insU 3' of 4,insG 3' of 3 (mixed)
RNA 1: CACCCGUGCAAAAAUGCAGGGGUCUAAAACUGAGCGGAUAACCUCUCUAUGG
RNA 2: GGGAAUGGAUCCACAUCUACGAAUUCGUACCAUAGAGAGGUUAUCCGCUUGCACCGAGAUCGGAAGAGCACACGU
B11: target 1 insU 3' of 21,insG 3' of 3 (mixed)
RNA 1: CACCCGUGCAAAAAUGCAGGGGUCUAAAACUGAGCGGAUAACCUCUCUAUGG
RNA 2: GGGAAUGGAUCCACAUCUACGAAUUCGUACCUAUAGAGAGGUUAUCCGCUGCACCGAGAUCGGAAGAGCACACGU
B12: target 1 insU 3' of 14,insU 3' of 1 (mixed)
RNA 1: CACCCGUGCAAAAAUGCAGGGGUCUAAAACUGAGCGGAUAACCUCUCUAUGG
RNA 2: GGGAAUGGAUCCACAUCUACGAAUUCGUACCAUAGAGAUGGUUAUCCGCUCAUCCGAGAUCGGAAGAGCACACGU
B13: target 1 A16C,A18U (mixed)
RNA 1: CACCCGUGCAAAAAUGCAGGGGUCUAAAACUGAGCGGAUAACCUCUCUAUGG
RNA 2: GGGAAUGGAUCCACAUCUACGAAUUCGUACCAUUGCGAGGUUAUCCGCUCACCGAGAUCGGAAGAGCACACGU
B14: target 1 insC 3' of 1,insC 3' of 1 (mixed)
RNA 1: CACCCGUGCAAAAAUGCAGGGGUCUAAAACUGAGCGGAUAACCUCUCUAUGG
RNA 2: GGGAAUGGAUCCACAUCUACGAAUUCGUACCAUAGAGAGGUUAUCCGCUCACCCCGAGAUCGGAAGAGCACACGU
B15: target 1 U8G,G15C (mixed)
RNA 1: CACCCGUGCAAAAAUGCAGGGGUCUAAAACUGAGCGGAUAACCUCUCUAUGG
RNA 2: GGGAAUGGAUCCACAUCUACGAAUUCGUACCAUAGACAGGUUAGCCGCUCACCGAGAUCGGAAGAGCACACGU
B16: target 1 A1C,A9C (mixed)
RNA 1: CACCCGUGCAAAAAUGCAGGGGUCUAAAACUGAGCGGAUAACCUCUCUAUGG
RNA 2: GGGAAUGGAUCCACAUCUACGAAUUCGUACCAUAGAGAGGUUCUCCGCUCCCCGAGAUCGGAAGAGCACACGU
B17: target 1 insG 3' of 9 (mixed)
RNA 1: CACCCGUGCAAAAAUGCAGGGGUCUAAAACUGAGCGGAUAACCUCUCUAUGG
RNA 2: GGGAAUGGAUCCACAUCUACGAAUUCGUACCAUAGAGAGGUUAGUCCGCUCACCGAGAUCGGAAGAGCACACGU
B18: target 1 insU 3' of 9,insC 3' of 1 (mixed)
RNA 1: CACCCGUGCAAAAAUGCAGGGGUCUAAAACUGAGCGGAUAACCUCUCUAUGG
RNA 2: GGGAAUGGAUCCACAUCUACGAAUUCGUACCAUAGAGAGGUUAUUCCGCUCACCCGAGAUCGGAAGAGCACACGU
B19: target 1 insC 3' of 22,insG 3' of 21 (mixed)
RNA 1: CACCCGUGCAAAAAUGCAGGGGUCUAAAACUGAGCGGAUAACCUCUCUAUGG
RNA 2: GGGAAUGGAUCCACAUCUACGAAUUCGUACCCGAUAGAGAGGUUAUCCGCUCACCGAGAUCGGAAGAGCACACGU
B20: target 1 insG 3' of 19,insA 3' of 4 (mixed)
RNA 1: CACCCGUGCAAAAAUGCAGGGGUCUAAAACUGAGCGGAUAACCUCUCUAUGG
RNA 2: GGGAAUGGAUCCACAUCUACGAAUUCGUACCAUGAGAGAGGUUAUCCGCAUCACCGAGAUCGGAAGAGCACACGU
B21: target 1 insC 3' of 1,insG 3' of 1 (mixed)
RNA 1: CACCCGUGCAAAAAUGCAGGGGUCUAAAACUGAGCGGAUAACCUCUCUAUGG
RNA 2: GGGAAUGGAUCCACAUCUACGAAUUCGUACCAUAGAGAGGUUAUCCGCUCACGCCGAGAUCGGAAGAGCACACGU
B22: target 1 insC 3' of 3,insA 3' of 3 (mixed)
RNA 1: CACCCGUGCAAAAAUGCAGGGGUCUAAAACUGAGCGGAUAACCUCUCUAUGG
RNA 2: GGGAAUGGAUCCACAUCUACGAAUUCGUACCAUAGAGAGGUUAUCCGCUCACACCGAGAUCGGAAGAGCACACGU
B23: target 1 insC 3' of 15,insC 3' of 5 (mixed)
RNA 1: CACCCGUGCAAAAAUGCAGGGGUCUAAAACUGAGCGGAUAACCUCUCUAUGG
RNA 2: GGGAAUGGAUCCACAUCUACGAAUUCGUACCAUAGAGCAGGUUAUCCGCCUCACCGAGAUCGGAAGAGCACACGU
B24: target 1 insC 3' of 18,insA 3' of 13 (mixed)
RNA 1: CACCCGUGCAAAAAUGCAGGGGUCUAAAACUGAGCGGAUAACCUCUCUAUGG
RNA 2: GGGAAUGGAUCCACAUCUACGAAUUCGUACCAUACGAGAGAGUUAUCCGCUCACCGAGAUCGGAAGAGCACACGU
B25: target 1 U10C,G17U (mixed)
RNA 1: CACCCGUGCAAAAAUGCAGGGGUCUAAAACUGAGCGGAUAACCUCUCUAUGG
RNA 2: GGGAAUGGAUCCACAUCUACGAAUUCGUACCAUAUAGAGGUCAUCCGCUCACCGAGAUCGGAAGAGCACACGU
B26: target 1 G5C,U11A (mixed)
RNA 1: CACCCGUGCAAAAAUGCAGGGGUCUAAAACUGAGCGGAUAACCUCUCUAUGG
RNA 2: GGGAAUGGAUCCACAUCUACGAAUUCGUACCAUAGAGAGGAUAUCCCCUCACCGAGAUCGGAAGAGCACACGU
B27: target 1 insC 3' of 3,insU 3' of 1 (mixed)
RNA 1: CACCCGUGCAAAAAUGCAGGGGUCUAAAACUGAGCGGAUAACCUCUCUAUGG
RNA 2: GGGAAUGGAUCCACAUCUACGAAUUCGUACCAUAGAGAGGUUAUCCGCUCCAUCCGAGAUCGGAAGAGCACACGU
B28: target 1 insC 3' of 11,insA 3' of 7 (mixed)
RNA 1: CACCCGUGCAAAAAUGCAGGGGUCUAAAACUGAGCGGAUAACCUCUCUAUGG
RNA 2: GGGAAUGGAUCCACAUCUACGAAUUCGUACCAUAGAGAGGUCUAUCACGCUCACCGAGAUCGGAAGAGCACACGU

biological target: T1, EsCas13d, nuclease-dead; assay: crRNA (strand 1, pre-loaded); Mg2+; 40 mM Tris-HCl pH 7.5, 150 mM NaCl, 6 mM MgCl2, 1 mM DTT, 0.1% Tween-20, 0.2 mg/ml BSA; 25 C; 10 min per concentration, then washed; conditions: tags: His6-TwinStrep-SUMO cleaved; N-terminal SNAP kept (SNAP-Surface 488); label: 3' end held by stalled T7 RNA polymerase

Row | Binder | Kd
1 | B1 | 16.3 ± 3.2 nM
2 | B2 | 15 ± 0.7 nM
3 | B3 | 61 ± 11 nM
4 | B4 | 24.9 ± 0.8 nM
5 | B5 | 48 ± 7 nM
6 | B6 | 8.09 ± 0.34 nM
7 | B7 | 25 ± 6 nM
8 | B8 | 7.48 ± 0.34 nM
9 | B9 | 38 ± 4 nM
10 | B10 | 7.77 ± 0.31 nM
11 | B11 | 16.8 ± 0.7 nM
12 | B12 | 48 ± 8 nM
13 | B13 | 89 ± 11 nM
14 | B14 | 11.2 ± 0.5 nM
15 | B15 | 90 ± 19 nM
16 | B16 | 22.5 ± 3 nM
17 | B17 | 17.2 ± 1 nM
18 | B18 | 14.8 ± 0.7 nM
19 | B19 | 27.3 ± 3.1 nM
20 | B20 | 34.8 ± 3.1 nM
21 | B21 | 9 ± 0.7 nM
22 | B22 | 9.8 ± 0.5 nM
23 | B23 | 9.8 ± 0.4 nM
24 | B24 | 24.4 ± 1.9 nM
25 | B25 | 55 ± 4 nM
26 | B26 | 46 ± 10 nM
27 | B27 | 10.8 ± 0.8 nM
28 | B28 | 25.7 ± 1.5 nM
